{"source": "patent US20070269486A1", "about": "“Methods and Devices for Reducing Tissue Damage After Ischemic Injury” (priority 2005, published 2007)", "assay": "retention of insulin bioactivity when delivered in PLGA", "details": "delivered in poly(lactide-co-glycolide) (PLGA)", "from_the_text": "Insulin is a hormone which improves glycolic metabolism and ATP production. Insulin also may act as a vasodilator, an anti-inflammatory, and an antiplatelet agent. Thus, insulin acts by several mechanisms to decrease infarct size by reducing inflammation, slowing the rate of ischemic necrosis, decreasing circulating levels of FFA and myocardial FFA uptake, restoring myocardial glycogen stores and improving contractile function. The insulin can be human, non-human, or synthetic and can be complete or fragments. Preferably the insulin is a stable, short acting form which is resistant to radiation. Insulin in its crystalline form may be used for improved resistance to radiation. When the insulin is combined with a polymer an agent may be added to preserve bioactivity. […] For substantially longer administration periods, an antacid or other agent may be used to maintain a required pH for continued bioactivity from a PLGA matrix.\nProtein or peptide drugs can be human, non-human, recombinant or synthetic and can be the full length native form or an active fragment thereof. Preferably the insulin is a stable, short acting form which is resistant to radiation. Insulin in its crystalline form may be used for improved resistance to radiation. When the insulin is combined with a polymer, an agent may be added to preserve bioactivity. […]", "data": [{"substance": "insulin", "values": [{"measurement": "period over which bioactivity is retained", "value": "at least 24 hours"}]}]}
